Results reported in US20240076389A1 (NATIONAL RESEARCH COUNCIL OF CANADA, published 2024).

Columns and labels:
[1] = target: T1, human AXL expressed on the cell surface of tumor cell lines (human, UniProt P30530 26-894); assay: FACS on MDA-MB-231 luciferase cells, apparent Kd
T1 construct: whole, on cells; also called cell surface-expressed AXL; cell-based AXL
T1 sequence (looked up): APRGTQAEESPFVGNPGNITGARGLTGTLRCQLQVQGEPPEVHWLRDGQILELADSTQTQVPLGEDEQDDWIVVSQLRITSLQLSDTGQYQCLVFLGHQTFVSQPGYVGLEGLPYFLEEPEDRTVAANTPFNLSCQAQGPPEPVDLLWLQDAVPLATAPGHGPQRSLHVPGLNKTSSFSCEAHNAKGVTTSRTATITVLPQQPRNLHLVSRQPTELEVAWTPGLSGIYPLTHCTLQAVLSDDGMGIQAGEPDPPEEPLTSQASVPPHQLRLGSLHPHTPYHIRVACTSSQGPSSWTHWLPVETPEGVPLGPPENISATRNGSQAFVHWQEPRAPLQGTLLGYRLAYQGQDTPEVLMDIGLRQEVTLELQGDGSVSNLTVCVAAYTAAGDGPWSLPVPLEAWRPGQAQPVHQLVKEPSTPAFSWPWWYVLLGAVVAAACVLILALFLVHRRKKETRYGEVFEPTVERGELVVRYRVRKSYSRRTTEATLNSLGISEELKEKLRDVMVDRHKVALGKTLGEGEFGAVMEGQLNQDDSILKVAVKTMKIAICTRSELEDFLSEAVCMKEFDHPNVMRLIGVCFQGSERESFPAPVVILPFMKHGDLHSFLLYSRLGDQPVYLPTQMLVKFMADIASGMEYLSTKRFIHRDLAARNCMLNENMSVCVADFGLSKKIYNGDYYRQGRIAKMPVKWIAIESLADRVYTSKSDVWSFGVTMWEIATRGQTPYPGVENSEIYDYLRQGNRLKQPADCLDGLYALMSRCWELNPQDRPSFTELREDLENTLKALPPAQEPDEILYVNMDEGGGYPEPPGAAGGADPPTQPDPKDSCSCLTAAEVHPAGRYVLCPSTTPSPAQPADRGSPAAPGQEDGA
Experimental: FACS binding assay. Adherent cells were dissociated with non-enzymatic Sigma Cell Dissociation Solution (Cat. No. C5789). Cells suspensions were added to polypropylene, V-bottom 96-well plates and incubated for 2 hours on ice with primary antibodies at concentrations ranging from 100 nM to 0.001 nM or at a single dose of 100 nM (for the non-specific control). After incubation and washes, cells were incubated with fluorescently labeled secondary antibody (Alexa Fluor® 488 anti-human IgG from Jackson Cat. No 709-546-098) for 1 hour on ice, then washed. Cell viability was determined using Fixable viability dye 450 (20 min on ice). Stained cells were fixed in 1% formaldehyde at 4° C. and stored at 4° C. until acquisition which was performed the next day.
Binding of recombinant chimeric Abs to three cell lines was assessed by FACS as described above. The apparent Bmax and Kd determination is shown below in Table 14.

[2] = target: T2, huMER-ECD displayed on yeast (human, UniProt Q12866 21-505); assay: yeast surface display ELISA, non-denatured yeast, goat anti-human F(ab')2-HRP
T2 construct: extracellular domain
T2 sequence (looked up): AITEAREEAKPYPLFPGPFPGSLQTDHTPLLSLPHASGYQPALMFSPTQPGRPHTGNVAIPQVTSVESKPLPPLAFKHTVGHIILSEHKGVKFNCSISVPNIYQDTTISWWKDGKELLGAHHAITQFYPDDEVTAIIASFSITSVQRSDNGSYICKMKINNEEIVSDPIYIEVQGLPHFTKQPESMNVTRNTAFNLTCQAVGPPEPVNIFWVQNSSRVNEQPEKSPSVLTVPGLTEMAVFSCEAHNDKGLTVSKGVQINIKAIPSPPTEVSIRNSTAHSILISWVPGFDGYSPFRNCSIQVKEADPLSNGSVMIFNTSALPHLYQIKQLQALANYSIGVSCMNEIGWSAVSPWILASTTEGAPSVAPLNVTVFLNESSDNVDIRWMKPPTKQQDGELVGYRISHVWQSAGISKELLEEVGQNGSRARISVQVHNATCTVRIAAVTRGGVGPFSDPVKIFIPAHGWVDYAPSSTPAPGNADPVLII

Kd [1]: 0.101 nM
yeast ELISA signal normalized to myc expression level [2]: -0.02
B1: hFC-F107-10G1 (antibody, human IgG1, kappa, V domains shown)
VH: EVNLVESGGGVVKPGASLKLSCEASGFTFSNYGMSWVRQTSDKRLEWVASISGGGGRTYYLDNVKGRFIISRENAKNTLYLQMSSLKSEDTALFYCARGARASYFAMDYWGQGSSVTVSS
VL: VIVMTQSHKFMSTSVGDRVSITCKASQDVTTAVAWYQQKPGQSPKLLIYWASTRHTGVPDRFTGSGSGTDYSLTISNVQTEDLAFYYCQQHFTTPLTFGAGTKLELKR
notes: Chimeric mAb, human IgG1 / human kappa constant regions; also called mAb F107-10G1
